# Values quoted from earlier work as cited in article PMC8799529.
# Biological target: p38 MAPK (Homo sapiens) (UniProt Q16539)
# UniProt Q16539, sequence (Q16539 2-360): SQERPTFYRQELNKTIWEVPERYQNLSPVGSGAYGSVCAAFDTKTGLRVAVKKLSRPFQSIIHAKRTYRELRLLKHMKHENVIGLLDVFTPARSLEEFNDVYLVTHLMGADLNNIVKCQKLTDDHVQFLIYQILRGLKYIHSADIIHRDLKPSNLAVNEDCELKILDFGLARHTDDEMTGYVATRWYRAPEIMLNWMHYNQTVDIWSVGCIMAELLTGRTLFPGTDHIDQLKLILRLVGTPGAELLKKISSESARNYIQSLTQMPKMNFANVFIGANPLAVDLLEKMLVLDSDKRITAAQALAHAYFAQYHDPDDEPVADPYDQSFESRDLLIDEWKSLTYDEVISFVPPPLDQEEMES
substance,measurement,value
MK2 (from UniProt P49137),Kd,2.5 nM
